The text below walks through data of patent US20240066131A1 (Protagonist Therapeutics, Inc., priority 2020, published 2024).

First the molecules themselves.
T1: human ferroportin (SLC40A1) fused in frame with GFP, stably expressed in HEK293 cells (human, UniProt Q9NP59 1-571)
T1 sequence (looked up): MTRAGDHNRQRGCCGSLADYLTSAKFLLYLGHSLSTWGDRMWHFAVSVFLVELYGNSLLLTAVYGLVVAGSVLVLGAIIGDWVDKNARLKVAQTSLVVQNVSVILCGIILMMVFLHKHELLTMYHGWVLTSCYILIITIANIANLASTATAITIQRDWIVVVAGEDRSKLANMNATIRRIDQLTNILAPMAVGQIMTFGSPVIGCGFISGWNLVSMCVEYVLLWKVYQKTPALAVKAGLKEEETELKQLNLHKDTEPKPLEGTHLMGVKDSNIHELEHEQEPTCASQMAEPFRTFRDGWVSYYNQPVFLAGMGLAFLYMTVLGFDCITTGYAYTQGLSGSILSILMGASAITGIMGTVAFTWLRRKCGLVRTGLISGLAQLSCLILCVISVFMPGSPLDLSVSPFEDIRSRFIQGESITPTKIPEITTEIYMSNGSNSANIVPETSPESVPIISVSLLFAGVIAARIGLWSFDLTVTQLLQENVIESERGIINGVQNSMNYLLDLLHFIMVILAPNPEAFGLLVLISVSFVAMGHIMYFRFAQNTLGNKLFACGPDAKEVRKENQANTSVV

B1: Isovaleric Acid-A-T-H-[Dpa]-P-E-I-[(D)Lys]-[bhPhe]-[Lys(Ahx_Palm)]-R-NH2; (E and (D)Lys cyclized) (peptide)
peptide: Isovaleryl-ATH[Dip]PEI[dK][β3hF]K([Ahx-Palmitoyl])R-NH2
modifications: lactam 6-8
SMILES: CCCCCCCCCCCCCCCC(=O)NCCCCCC(=O)NCCCC[C@H](NC(=O)C[C@H](Cc1ccccc1)NC(=O)[C@H]1CCCCNC(=O)CC[C@H](NC(=O)[C@@H]2CCCN2C(=O)[C@@H](NC(=O)[C@H](Cc2c[nH]cn2)NC(=O)[C@@H](NC(=O)[C@H](C)NC(=O)CC(C)C)[C@@H](C)O)C(c2ccccc2)c2ccccc2)C(=O)N[C@@H]([C@@H](C)CC)C(=O)N1)C(=O)N[C@@H](CCCNC(=N)N)C(N)=O
B2: Isovaleric Acid-K-T-H-[Dpa]-P-A-I-[Lys(Ahx_Palm)]-[bhPhe]-E-NH2; (K and E cyclized) (peptide)
peptide: Isovaleryl-KTH[Dip]PAIK([Ahx-Palmitoyl])[β3hF]E-NH2
modifications: lactam 1-10
SMILES: CCCCCCCCCCCCCCCC(=O)NCCCCCC(=O)NCCCC[C@@H]1NC(=O)[C@H]([C@@H](C)CC)NC(=O)[C@H](C)NC(=O)[C@@H]2CCCN2C(=O)[C@H](C(c2ccccc2)c2ccccc2)NC(=O)[C@H](Cc2c[nH]cn2)NC(=O)[C@H]([C@@H](C)O)NC(=O)[C@@H](NC(=O)CC(C)C)CCCCNC(=O)CC[C@@H](C(N)=O)NC(=O)C[C@H](Cc2ccccc2)NC1=O
B3: Isovaleric Acid-L-T-H-[Dpa]-P-A-I-[(N-Me)Lys]-[bhPhe]-[Lys(Ahx_Palm)]-NH2 (peptide)
peptide: Isovaleryl-LTH[Dip]PAI[NMeK][β3hF]K([Ahx-Palmitoyl])-NH2
SMILES: CCCCCCCCCCCCCCCC(=O)NCCCCCC(=O)NCCCC[C@H](NC(=O)C[C@H](Cc1ccccc1)NC(=O)[C@H](CCCCN)N(C)C(=O)[C@@H](NC(=O)[C@H](C)NC(=O)[C@@H]1CCCN1C(=O)[C@@H](NC(=O)[C@H](Cc1c[nH]cn1)NC(=O)[C@@H](NC(=O)[C@H](CC(C)C)NC(=O)CC(C)C)[C@@H](C)O)C(c1ccccc1)c1ccccc1)[C@@H](C)CC)C(N)=O
B4: Isovaleric Acid-A-T-H-K-P-E-I-[Lys(Ahx_Palm)]-[bhPhe]-R-NH2; (K and E cyclized) (peptide)
peptide: Isovaleryl-ATHKPEIK([Ahx-Palmitoyl])[β3hF]R-NH2
modifications: lactam 4-6
SMILES: CCCCCCCCCCCCCCCC(=O)NCCCCCC(=O)NCCCC[C@H](NC(=O)[C@@H](NC(=O)[C@@H]1CCC(=O)NCCCC[C@H](NC(=O)[C@H](Cc2c[nH]cn2)NC(=O)[C@@H](NC(=O)[C@H](C)NC(=O)CC(C)C)[C@@H](C)O)C(=O)N2CCC[C@H]2C(=O)N1)[C@@H](C)CC)C(=O)N[C@H](CC(=O)N[C@@H](CCCNC(=N)N)C(N)=O)Cc1ccccc1
B5: Isovaleric Acid-A-T-H-E-P-K-I-[Lys(Ahx_Palm)]-[bhPhe]-R-NH2; (E and K cyclized) (peptide)
peptide: Isovaleryl-ATHEPKIK([Ahx-Palmitoyl])[β3hF]R-NH2
modifications: lactam 4-6
SMILES: CCCCCCCCCCCCCCCC(=O)NCCCCCC(=O)NCCCC[C@H](NC(=O)[C@@H](NC(=O)[C@@H]1CCCCNC(=O)CC[C@H](NC(=O)[C@H](Cc2c[nH]cn2)NC(=O)[C@@H](NC(=O)[C@H](C)NC(=O)CC(C)C)[C@@H](C)O)C(=O)N2CCC[C@H]2C(=O)N1)[C@@H](C)CC)C(=O)N[C@H](CC(=O)N[C@@H](CCCNC(=N)N)C(N)=O)Cc1ccccc1
B6: Isovaleric Acid-A-T-H-[Dpa]-P-K-I-E-[bhPhe]-[Lys(Ahx_Palm)]-R-NH2; (K and E cyclized) (peptide)
peptide: Isovaleryl-ATH[Dip]PKIE[β3hF]K([Ahx-Palmitoyl])R-NH2
modifications: lactam 6-8
SMILES: CCCCCCCCCCCCCCCC(=O)NCCCCCC(=O)NCCCC[C@H](NC(=O)C[C@H](Cc1ccccc1)NC(=O)[C@@H]1CCC(=O)NCCCC[C@H](NC(=O)[C@@H]2CCCN2C(=O)[C@@H](NC(=O)[C@H](Cc2c[nH]cn2)NC(=O)[C@@H](NC(=O)[C@H](C)NC(=O)CC(C)C)[C@@H](C)O)C(c2ccccc2)c2ccccc2)C(=O)N[C@@H]([C@@H](C)CC)C(=O)N1)C(=O)N[C@@H](CCCNC(=N)N)C(N)=O
B7: Isovaleric Acid-[Tet1]-T-[(1Me)His]-[Dpa]-P-A-I-[Lys(Ahx_Palm)]-[bhPhe]-NH2 (peptide)
peptide: Isovaleryl-[Ala(1H-tetrazol-5-yl)]T[His(τ-Me)][Dip]PAIK([Ahx-Palmitoyl])[β3hF]-NH2
SMILES: CCCCCCCCCCCCCCCC(=O)NCCCCCC(=O)NCCCC[C@H](NC(=O)[C@@H](NC(=O)[C@H](C)NC(=O)[C@@H]1CCCN1C(=O)[C@@H](NC(=O)[C@H](Cc1cn(C)cn1)NC(=O)[C@@H](NC(=O)[C@H](Cc1nnn[nH]1)NC(=O)CC(C)C)[C@@H](C)O)C(c1ccccc1)c1ccccc1)[C@@H](C)CC)C(=O)N[C@H](CC(N)=O)Cc1ccccc1
B8: Isovaleric Acid-L-T-[(1Me)His]-[Dpa]-P-A-I-[Lys(Ahx_Palm)]-[bhPhe]-NH2 (peptide)
peptide: Isovaleryl-LT[His(τ-Me)][Dip]PAIK([Ahx-Palmitoyl])[β3hF]-NH2
SMILES: CCCCCCCCCCCCCCCC(=O)NCCCCCC(=O)NCCCC[C@H](NC(=O)[C@@H](NC(=O)[C@H](C)NC(=O)[C@@H]1CCCN1C(=O)[C@@H](NC(=O)[C@H](Cc1cn(C)cn1)NC(=O)[C@@H](NC(=O)[C@H](CC(C)C)NC(=O)CC(C)C)[C@@H](C)O)C(c1ccccc1)c1ccccc1)[C@@H](C)CC)C(=O)N[C@H](CC(N)=O)Cc1ccccc1
B9: Isovaleric Acid-[Tet1]-T-[(1-Me)His]-[Dpa]-P-A-I-[bhPhe]-[(D)Lys]-NH2 (peptide)
peptide: Isovaleryl-[Ala(1H-tetrazol-5-yl)]T[His(τ-Me)][Dip]PAI[β3hF][dK]-NH2
SMILES: CC[C@H](C)[C@H](NC(=O)[C@H](C)NC(=O)[C@@H]1CCCN1C(=O)[C@@H](NC(=O)[C@H](Cc1cn(C)cn1)NC(=O)[C@@H](NC(=O)[C@H](Cc1nnn[nH]1)NC(=O)CC(C)C)[C@@H](C)O)C(c1ccccc1)c1ccccc1)C(=O)N[C@H](CC(=O)N[C@H](CCCCN)C(N)=O)Cc1ccccc1
B10: Isovaleric Acid-E-T-H-[Dpa]-P-A-I-[(D)Lys]-[bhPhe]-[Lys(Ahx_Palm)]-[(D)Lys]-NH2 (peptide)
peptide: Isovaleryl-ETH[Dip]PAI[dK][β3hF]K([Ahx-Palmitoyl])[dK]-NH2
SMILES: CCCCCCCCCCCCCCCC(=O)NCCCCCC(=O)NCCCC[C@H](NC(=O)C[C@H](Cc1ccccc1)NC(=O)[C@@H](CCCCN)NC(=O)[C@@H](NC(=O)[C@H](C)NC(=O)[C@@H]1CCCN1C(=O)[C@@H](NC(=O)[C@H](Cc1c[nH]cn1)NC(=O)[C@@H](NC(=O)[C@H](CCC(=O)O)NC(=O)CC(C)C)[C@@H](C)O)C(c1ccccc1)c1ccccc1)[C@@H](C)CC)C(=O)N[C@H](CCCCN)C(N)=O

Starred links: 1 amine or outer side, 2 acyl side, 3 side chain; linkers in the order of their positions; H or OH if unused. Positions of bridges follow the written chain, without caps; N, C: chain ends. Non-standard residues stand in square brackets, D forms with d. Groups on a side chain read outwards from the residue. *: point of attachment. ButanoicP = (R)-4-(pyrrolidin-2-yl)butanoic acid, O=C(CCC[C@@H]1CCCN1[*:1])[*:2]; Ala(1H-tetrazol-5-yl) = N[C@@H](Cc1nnn[nH]1)C(=O)O; Dip = N[C@H](C(=O)O)C(c1ccccc1)c1ccccc1; His(τ-Me) = Cn1cnc(C[C@H](N)C(=O)O)c1; Palmitoyl = CCCCCCCCCCCCCCCC(=O)*; β3hF = N[C@H](CC(=O)O)Cc1ccccc1; NMeK = CN[C@@H](CCCCN)C(=O)O; Isovaleryl = CC(C)CC(=O)*; IDA = iminodiacetic acid; Ahx = NCCCCCC(=O)O Some results are limits rather than exact numbers.

This assay addresses T1, human ferroportin (SLC40A1) fused in …. Kind of assay: cell-based or functional assay.
For the molecule B1, the “FPN EC50” value was found to be 61.2 nM.
Take Isovaleryl-ETH[Dip]PKIK([Ahx-Palmitoyl])[β3hF][dK]-NH2 (lactam 1-6 (inferred)) [Isovaleric Acid-E-T-H-[Dpa]-P-K-I-[Lys(Ahx_Palm)]-[bhPhe]-[(D)Lys]-NH2; (E and K cyclized)]: the “FPN EC50” value stood at 122 nM.
For Isovaleryl-[dE]TH[Dip]PIIK(Ac)[β3hF]-NH2 [Isovaleric Acid-[(D)Glu]-T-H-[Dpa]-P-I-I-[Lys(Ac)]-[bhPhe]-NH2] the value was 1450 nM; for B2, 184 nM.
As for Isovaleryl-ETH[Dip][ButanoicP]K([Ahx-Palmitoyl])[β3hF]-NH2 [Isovaleric Acid-E-T-H-[Dpa]-[ButanoicP]-[Lys(Ahx_Palm)]-[bhPhe]-NH2], the figure is 20.5 nM.
For Pimelic_Acid-ETH[Dip]PIIK(Ac)[β3hF]-NH2 [[Pimelic_Acid]-E-T-H-[Dpa]-P-I-I-[Lys(Ac)]-[bhPhe]-NH2] the value was > 5000 nM; for B3, 103 nM; for Isovaleryl-LT[His(τ-Me)][Dip]PAI[NMeK][β3hF]K([Ahx-Palmitoyl])-NH2 [Isovaleric Acid-L-T-[(1Me)His]-[Dpa]-P-A-I-[(N-Me)Lys)]-[bhPhe]-[Lys(Ahx_Palm)]-NH2], 95.9 nM.
In the case of B4, the “FPN EC50” value is > 3000 nM.
For Gallic_Acid-ETH[Dip]PIIK(Ac)[β3hF]-NH2 [[Gallic_Acid]-E-T-H-[Dpa]-P-I-I-[Lys(Ac)]-[bhPhe]-NH2] the value was > 3000 nM; for Glutaric_Acid-ETH[Dip]PIIK(Ac)[β3hF]-NH2 [[Glutaric_Acid]-E-T-H-[Dpa]-P-I-I-[Lys(Ac)]-[bhPhe]-NH2], > 3000 nM.
As for Isovaleryl-[N‑(CH2CH2CH2CO2H)Gly]TH[Dip]PAIK([Ahx-Palmitoyl])[β3hF]-NH2 [Isovaleric Acid-[N-(CH2CH2CH2CO2H)Gly]-T-H-[Dpa]-P-A-I-[Lys(Ahx_Palm)]-[bhPhe]-NH2], the figure is 202 nM.
As for {Isophthalic Acid}-ETH[Dip]PIIK(Ac)[β3hF]-NH2 [[Isophthalic Acid]-E-T-H-[Dpa]-P-I-I-[Lys(Ac)]-[bhPhe]-NH2], the figure is > 5000 nM; as for Isovaleryl-ET[N‑(CH2CH2-imidazol4-yl)Gly][Dip]PAIK([Ahx-Palmitoyl])[β3hF]-NH2 [Isovaleric Acid-E-T-[N-(CH2CH2-imidazol4-yl)Gly]-[Dpa]-P-A-I-[Lys(Ahx_Palm)]-[bhPhe]-NH2], > 3000 nM.
In the case of Succinic_Acid-ETH[Dip]PIIK(Ac)[β3hF]-NH2 [[Succinic_Acid]-E-T-H-[Dpa]-P-I-I-[Lys(Ac)]-[bhPhe]-NH2], the “FPN EC50” value is > 3000 nM.
For B5 the value was > 3000 nM; for B6, 90.7 nM.
For B7 the value was 63.1 nM; for B8, > 3000 nM.
For {3,3,3‑Trifluoro propionic acid}-ETH[Dip]PIIK(Ac)[β3hF]-NH2 [[3,3,3-Trifluoro propionic acid]-E-T-H-[Dpa]-P-I-I-[Lys(Ac)]-[bhPhe]-NH2] the value was 5740 nM; for {(3-Trifluoromethyl)butyric acid}-ETH[Dip]PIIK(Ac)[β3hF]-NH2 [[(3-Trifluoromethyl)butyric acid]-E-T-H-[Dpa]-P-I-I-[Lys(Ac)]-[bhPhe]-NH2], 2080 nM.
As to Isovaleryl-E[N‑(CH2CH2OH)Gly]H[Dip]PAIK([Ahx-Palmitoyl])[β3hF]-NH2 [Isovaleric Acid-E-[N-(CH2CH2OH)Gly]-H-[Dpa]-P-A-I-[Lys(Ahx_Palm)]-[bhPhe]-NH2], the “FPN EC50” value came out at 2230 nM.
As for {IDA}-ETH[Dip]PIIK(Ac)[β3hF]-NH2 [[IDA]-E-T-H-[Dpa]-P-I-I-[Lys(Ac)]-[bhPhe]-NH2], the figure is > 5000 nM; as for B9, 378 nM.
For B10 the value was 45.5 nM.
